Measurements reported in patent US20180340025A1 (Novartis, published 2018).

Key:
[1] = target: T1, human LAG-3 expressed on cells (human, UniProt P18627 23-525); test: FACS competition: serial dilutions of the test mAb against a constant concentration of FITC-labeled murine BAP050 on LAG-3-expressing CHO cells; MFI of bound labelled mAb
T1 construct: whole, on cells; Treated as one protein; the host cell is named under assay; also called LAG-3-expressing CHO cells; LAG-3-transfected CHO cells
T1 sequence (looked up): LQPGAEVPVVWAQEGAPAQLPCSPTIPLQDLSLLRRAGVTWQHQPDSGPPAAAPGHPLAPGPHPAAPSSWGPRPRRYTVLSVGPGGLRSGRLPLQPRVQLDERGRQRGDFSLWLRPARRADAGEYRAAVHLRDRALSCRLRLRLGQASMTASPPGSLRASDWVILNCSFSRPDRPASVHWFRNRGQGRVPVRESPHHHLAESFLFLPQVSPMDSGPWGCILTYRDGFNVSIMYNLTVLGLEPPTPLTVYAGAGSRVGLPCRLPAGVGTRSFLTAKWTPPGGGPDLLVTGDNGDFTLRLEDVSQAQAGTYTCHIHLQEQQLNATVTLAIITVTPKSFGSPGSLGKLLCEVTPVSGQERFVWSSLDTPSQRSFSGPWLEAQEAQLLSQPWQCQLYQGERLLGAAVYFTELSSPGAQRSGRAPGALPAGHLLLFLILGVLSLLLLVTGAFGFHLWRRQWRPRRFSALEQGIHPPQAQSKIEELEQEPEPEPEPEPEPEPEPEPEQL

[2] = target: T1, human LAG-3 expressed on cells; test: FACS, human LAG-3 transfected 300.19 cells; human LAG-3 transfected 300.19 cells
[3] = target: T1, human LAG-3 expressed on cells; test: FACS, human T cells; human T cells
[4] = target: T1, human LAG-3 expressed on cells; test: FACS, human LAG-3 transfected CHO cells; human LAG-3 transfected CHO cells
[5] = target: T2, LAG-3-huIgG1 Fc fusion protein (human, UniProt P18627 23-434, limits assumed); test: competition binding assay, LAG-3-Ig binding to MHC class II on Raji cells
T2 construct: also called LAG-3-Ig; soluble LAG-3-Ig; not shown: human IgG1 Fc
T2 sequence (looked up): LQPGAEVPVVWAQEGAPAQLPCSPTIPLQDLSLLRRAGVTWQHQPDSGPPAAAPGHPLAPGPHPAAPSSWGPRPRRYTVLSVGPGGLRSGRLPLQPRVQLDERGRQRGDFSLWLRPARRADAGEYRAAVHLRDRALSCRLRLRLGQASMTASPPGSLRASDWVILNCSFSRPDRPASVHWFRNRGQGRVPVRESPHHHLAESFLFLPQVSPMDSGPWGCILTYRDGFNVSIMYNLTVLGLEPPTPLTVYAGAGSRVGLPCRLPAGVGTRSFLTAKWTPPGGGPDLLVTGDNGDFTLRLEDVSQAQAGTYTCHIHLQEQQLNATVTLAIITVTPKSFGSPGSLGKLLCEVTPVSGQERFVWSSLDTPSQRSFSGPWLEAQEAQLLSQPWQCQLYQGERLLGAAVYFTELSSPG

Binder	binding result [1]	Kd [2] [nM]	Kd [3] [nM]	Kd [4] [nM]	IC50 [5] [nM]
BAP050-hum05-Ser (antibody, human IgG4 S228P, kappa, C84S in VHFW3 of BAP050-hum05; IgG4(S228P)/kappa; also called clone No. 5S; huBAP050(Ser) clone) heavy: not shown light: EIVLTQSPATLSLSPGERATLSCSSSQDISNYLNWYQQKPGKAPKLLIYYTSTLHLGVPSRFSGSGSGTDFTFTISSLEAEDAATYYCQQYYNLPWTFGQGTKVEIKRTVAAPSVFIFPPSDEQLKSGTASVVCLLNNFYPREAKVQWKVDNALQSGNSQESVTEQDSKDSTYSLSSTLTLSKADYEKHKVYACEVTHQGLSSPVTKSFNRGEC	binds	–	–	–	–
BAP050-hum11-Ser (antibody, human IgG4 S228P, kappa, V domains shown, C84S in VHFW3 of BAP050-hum11; IgG4(S228P)/kappa; also called clone No. 11S) VH: QVQLVQSGAEVKKPGASVKVSCKASGFTLTNYGMNWVRQARGQRLEWIGWINTDTGEPTYADDFKGRFVFSLDTSVSTAYLQISSLKAEDTAVYYCARNPPYYYGTNNAEAMDYWGQGTTVTVSS VL: DIQMTQSPSSLSASVGDRVTITCSSSQDISNYLNWYLQKPGQSPQLLIYYTSTLHLGVPSRFSGSGSGTEFTLTISSLQPDDFATYYCQQYYNLPWTFGQGTKVEIKR	binds	–	–	–	–
BAP050-hum12-Ser (antibody, human IgG4 S228P, kappa, V domains shown, C84S in VHFW3 of BAP050-hum12; IgG4(S228P)/kappa; also called huBAP050(Ser) clone) VH: QVQLVQSGAEVKKPGASVKVSCKASGFTLTNYGMNWVRQARGQRLEWIGWINTDTGEPTYADDFKGRFVFSLDTSVSTAYLQISSLKAEDTAVYYCARNPPYYYGTNNAEAMDYWGQGTTVTVSS VL: EIVLTQSPDFQSVTPKEKVTITCSSSQDISNYLNWYQQKPGQAPRLLIYYTSTLHLGVPSRFSGSGSGTDFTLTISSLQPEDFATYYCQQYYNLPWTFGQGTKVEIKR	binds	–	–	–	–
murine anti-LAG-3 monoclonal antibody BAP050 (antibody, V domains shown, also called murine mAb; parent murine mAb) VH: QIQLVQSGPELKKPGETVKISCKASGFTLTNYGMNWVRQTPGKGLKWMGWINTDTGEPTYADDFKGRFAFSLETSASTASLQINNLKNADTATYFCARNPPYYYGTNNAEAMDYWGQGTAVTVSS VL: DIQMTQTTSSLSASLGDRVTISCSSSQDISNYLNWYQQKPDGTVKVLIYYTSTLHLGVPSRFSGSGSGTDYSLTISNLELEDIATYYCQQYYNLPWTFGGGTKLEIK	–	13.6	0.26	0.2	2.3
